Measurements published in publication PMC9526450 (Nature structural & molecular biology, 2022).

Biological target: T1, Strep-tagged WT UBE2O from Expi293F cells (human, UniProt Q9C0C9 1-1292)
T1 sequence (looked up): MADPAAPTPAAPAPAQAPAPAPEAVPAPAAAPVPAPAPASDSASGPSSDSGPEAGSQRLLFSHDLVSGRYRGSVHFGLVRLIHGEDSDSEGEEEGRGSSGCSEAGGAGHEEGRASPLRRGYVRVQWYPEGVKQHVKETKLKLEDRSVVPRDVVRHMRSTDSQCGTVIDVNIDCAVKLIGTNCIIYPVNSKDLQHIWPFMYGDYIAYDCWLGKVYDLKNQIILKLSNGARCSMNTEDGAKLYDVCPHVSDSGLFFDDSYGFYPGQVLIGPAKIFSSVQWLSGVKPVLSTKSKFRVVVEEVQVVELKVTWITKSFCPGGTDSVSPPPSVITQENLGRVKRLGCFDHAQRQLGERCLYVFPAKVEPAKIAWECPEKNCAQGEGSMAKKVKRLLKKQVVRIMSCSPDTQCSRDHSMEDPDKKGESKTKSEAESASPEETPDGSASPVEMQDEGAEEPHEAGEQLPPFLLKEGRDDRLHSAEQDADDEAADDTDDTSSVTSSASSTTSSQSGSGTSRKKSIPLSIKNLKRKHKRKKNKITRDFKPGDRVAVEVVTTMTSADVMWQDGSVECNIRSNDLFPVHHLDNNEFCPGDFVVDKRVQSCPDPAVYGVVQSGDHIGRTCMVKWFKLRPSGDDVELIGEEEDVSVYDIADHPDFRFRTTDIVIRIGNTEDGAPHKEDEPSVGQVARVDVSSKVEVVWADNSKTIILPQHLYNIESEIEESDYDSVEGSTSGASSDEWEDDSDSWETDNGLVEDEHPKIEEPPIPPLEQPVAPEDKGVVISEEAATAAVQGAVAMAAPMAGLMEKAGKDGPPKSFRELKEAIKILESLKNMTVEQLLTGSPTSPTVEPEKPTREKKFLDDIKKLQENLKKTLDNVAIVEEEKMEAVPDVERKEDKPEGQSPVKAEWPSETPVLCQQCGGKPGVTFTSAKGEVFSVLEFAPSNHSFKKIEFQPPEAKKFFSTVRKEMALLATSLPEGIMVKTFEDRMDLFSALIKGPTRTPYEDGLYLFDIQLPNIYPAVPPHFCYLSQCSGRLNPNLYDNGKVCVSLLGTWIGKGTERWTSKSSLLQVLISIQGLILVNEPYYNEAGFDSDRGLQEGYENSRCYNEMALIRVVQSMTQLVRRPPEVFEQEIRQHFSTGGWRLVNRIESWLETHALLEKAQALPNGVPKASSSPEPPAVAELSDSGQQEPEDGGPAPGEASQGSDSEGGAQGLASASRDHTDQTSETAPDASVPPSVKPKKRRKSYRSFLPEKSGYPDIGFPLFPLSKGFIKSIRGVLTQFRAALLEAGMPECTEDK
Experiment: SEC

B1: purified Strep-tagged NAP1L1 (natural protein, human, UniProt P55209 1-391, looked up)
chain: MADIDNKEQSELDQDLDDVEEVEEEETGEETKLKARQLTVQMMQNPQILAALQERLDGLVETPTGYIESLPRVVKRRVNALKNLQVKCAQIEAKFYEEVHDLERKYAVLYQPLFDKRFEIINAIYEPTEEECEWKPDEEDEISEELKEKAKIEDEKKDEEKEDPKGIPEFWLTVFKNVDLLSDMVQEHDEPILKHLKDIKVKFSDAGQPMSFVLEFHFEPNEYFTNEVLTKTYRMRSEPDDSDPFSFDGPEIMGCTGCQIDWKKGKNVTLKTIKKKQKHKGRGTVRTVTKTVSNDSFFNFFAPPEVPESGDLDDDAEAILAADFEIGHFLRERIIPRSVLYFTGEAIEDDDDDYDEEGEEADEEGEEEGDEENDPDYDPKKDQNPAECKQQ
Does B1 bind?
Result: binds
